Paper PMC9482650, “Quantitative fragmentomics allow affinity mapping of interactomes” (Nature Communications, 2022)

Legend:
Assay in all cases: holdup assay
Parameters in all cases: key: below the threshold = too weak to quantify, mostly under pKd 3.1 to 4
DLG4_1, P78352 = target: DLG4_1, P78352
FRMPD3, Q5JV73 = target: FRMPD3, Q5JV73
GRIP1_3, Q9Y3R0 = target: T1, GRIP1_3, Q9Y3R0
T1 sequence (Q9Y3R0 247-346, limits assumed, looked up): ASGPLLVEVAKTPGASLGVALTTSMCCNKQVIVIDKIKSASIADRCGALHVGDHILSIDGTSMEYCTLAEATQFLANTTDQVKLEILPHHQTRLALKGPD

GRIP2_7, Q9C0E4 = target: GRIP2_7, Q9C0E4
HTRA3, P83110 = target: T2, HTRA3, P83110
T2 sequence (P83110 354-453, limits assumed, looked up): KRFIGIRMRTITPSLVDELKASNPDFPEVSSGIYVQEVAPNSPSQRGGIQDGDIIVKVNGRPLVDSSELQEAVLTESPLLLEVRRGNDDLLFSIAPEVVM

IL16_1, Q14005 = target: IL16_1, Q14005
Inadl_2, Q8NI35 = target: Inadl_2, Q8NI35
Inadl_8, Q8NI35 = target: Inadl_8, Q8NI35
LDB3, O75112 = target: LDB3, O75112
LIMK2, P53671 = target: LIMK2, P53671
LIN7C, Q9NUP9 = target: T3, LIN7C, Q9NUP9
T3 sequence (Q9NUP9 88-185, limits assumed, looked up): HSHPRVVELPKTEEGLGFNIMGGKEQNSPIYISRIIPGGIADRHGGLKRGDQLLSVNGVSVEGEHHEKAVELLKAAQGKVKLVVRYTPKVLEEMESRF

MAGI1_1, Q96QZ7 = target: MAGI1_1, Q96QZ7
MAGI2_2, Q86UL8 = target: MAGI2_2, Q86UL8
MAGI2_4, Q86UL8 = target: MAGI2_4, Q86UL8
MAGI2_6, Q86UL8 = target: MAGI2_6, Q86UL8
MAGI3_2, Q5TCQ9 = target: MAGI3_2, Q5TCQ9
MPP6, Q9NZW5 = target: T4, MPP6, Q9NZW5
T4 sequence (Q9NZW5 125-219, limits assumed, looked up): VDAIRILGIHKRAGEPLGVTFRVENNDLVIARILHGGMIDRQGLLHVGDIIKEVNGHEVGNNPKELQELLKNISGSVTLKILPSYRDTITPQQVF

MPP7, Q5T2T1 = target: T5, MPP7, Q5T2T1
T5 sequence (Q5T2T1 134-230, limits assumed, looked up): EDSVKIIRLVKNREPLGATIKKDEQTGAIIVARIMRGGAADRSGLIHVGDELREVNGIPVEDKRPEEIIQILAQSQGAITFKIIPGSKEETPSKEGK

NHERF3_3, Q5T2W1 = target: T6, NHERF3_3, Q5T2W1
T6 sequence (Q5T2W1 238-333, limits assumed, looked up): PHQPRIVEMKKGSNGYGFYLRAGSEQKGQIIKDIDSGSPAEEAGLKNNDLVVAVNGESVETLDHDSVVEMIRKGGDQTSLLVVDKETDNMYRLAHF

NHERF4_1, Q86UT5-2 = target: NHERF4_1, Q86UT5-2
NOS1, P29475 = target: NOS1, P29475
PDZD7_3, Q9H5P4 = target: T7, PDZD7_3, Q9H5P4
T7 sequence (Q9H5P4 857-944, limits assumed, looked up): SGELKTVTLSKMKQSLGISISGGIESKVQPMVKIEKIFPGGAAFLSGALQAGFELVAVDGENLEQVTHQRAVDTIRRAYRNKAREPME

PDZRN4_1, Q6ZMN7 = target: PDZRN4_1, Q6ZMN7
RADIL, Q96JH8 = target: T8, RADIL, Q96JH8
T8 sequence (Q96JH8 971-1071, limits assumed, looked up): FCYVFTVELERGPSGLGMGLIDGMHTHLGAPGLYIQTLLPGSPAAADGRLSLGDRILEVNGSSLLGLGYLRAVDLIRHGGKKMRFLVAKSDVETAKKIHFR

SCRIB_2, Q14160 = target: SCRIB_2, Q14160
SNTB1, Q13884 = target: T9, SNTB1, Q13884
T9 sequence (Q13884 107-205, limits assumed, looked up): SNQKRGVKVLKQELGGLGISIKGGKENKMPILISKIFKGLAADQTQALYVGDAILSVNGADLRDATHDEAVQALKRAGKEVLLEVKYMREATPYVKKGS

SNTG1, Q9NSN8 = target: T10, SNTG1, Q9NSN8
T10 sequence (Q9NSN8 52-150, limits assumed, looked up): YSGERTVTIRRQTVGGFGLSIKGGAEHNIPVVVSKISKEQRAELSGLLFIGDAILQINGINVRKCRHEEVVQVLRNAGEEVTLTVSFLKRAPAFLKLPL

[1] = plain residues with an end cap or a label only (N-terminal biotin on a linker: ahx)
[2] = plain residues with an end cap or a label only (N-terminal biotin on a linker: gsgsgs; C-terminal amide)

NHERF4_1, Q86UT5-2, sequence (Q86UT5 other isoform, or with tags, fused parts or gaps): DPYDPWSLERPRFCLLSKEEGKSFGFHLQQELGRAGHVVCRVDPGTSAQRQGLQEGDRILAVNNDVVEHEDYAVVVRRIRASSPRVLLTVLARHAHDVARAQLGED
Inadl_8, Q8NI35, sequence (Q8NI35 1425-1530): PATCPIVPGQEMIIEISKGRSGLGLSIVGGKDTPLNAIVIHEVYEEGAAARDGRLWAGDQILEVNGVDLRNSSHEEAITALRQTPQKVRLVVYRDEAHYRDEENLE
FRMPD3, Q5JV73, sequence (Q5JV73 12-100): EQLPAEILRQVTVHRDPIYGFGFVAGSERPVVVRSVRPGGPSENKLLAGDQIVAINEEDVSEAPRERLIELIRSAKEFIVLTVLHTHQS
MAGI2_4, Q86UL8, sequence (Q86UL8 772-865): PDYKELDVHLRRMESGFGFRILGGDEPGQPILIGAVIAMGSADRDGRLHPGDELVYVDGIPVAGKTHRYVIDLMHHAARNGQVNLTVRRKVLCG
GRIP2_7, Q9C0E4, sequence (Q9C0E4 934-1023): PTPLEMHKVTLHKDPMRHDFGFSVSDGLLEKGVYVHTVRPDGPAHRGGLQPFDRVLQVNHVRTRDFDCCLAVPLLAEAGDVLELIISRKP
DLG4_1, P78352, sequence (P78352 62-152): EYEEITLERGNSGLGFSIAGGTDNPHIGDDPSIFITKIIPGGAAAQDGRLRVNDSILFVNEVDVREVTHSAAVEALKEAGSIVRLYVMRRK
LIMK2, P53671, sequence (P53671 143-248): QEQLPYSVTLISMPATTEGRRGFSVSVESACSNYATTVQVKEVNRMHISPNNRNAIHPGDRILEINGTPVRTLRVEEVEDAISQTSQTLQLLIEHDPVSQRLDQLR
NOS1, P29475, sequence (P29475 9-101): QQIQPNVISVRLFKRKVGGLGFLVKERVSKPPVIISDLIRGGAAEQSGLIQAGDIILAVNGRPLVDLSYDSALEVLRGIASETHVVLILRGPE
MAGI2_6, Q86UL8, sequence (Q86UL8 1141-1229): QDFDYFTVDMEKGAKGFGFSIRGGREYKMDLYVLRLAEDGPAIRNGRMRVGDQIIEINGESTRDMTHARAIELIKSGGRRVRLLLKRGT
Inadl_2, Q8NI35, sequence (Q8NI35 238-335): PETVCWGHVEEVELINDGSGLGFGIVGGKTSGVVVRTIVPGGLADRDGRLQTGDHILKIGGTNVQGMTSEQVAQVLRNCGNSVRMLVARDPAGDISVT
LDB3, O75112, sequence (O75112 1-94): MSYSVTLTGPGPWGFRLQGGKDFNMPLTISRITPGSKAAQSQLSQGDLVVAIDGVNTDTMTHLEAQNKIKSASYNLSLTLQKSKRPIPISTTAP
PDZRN4_1, Q6ZMN7, sequence (Q6ZMN7 213-318): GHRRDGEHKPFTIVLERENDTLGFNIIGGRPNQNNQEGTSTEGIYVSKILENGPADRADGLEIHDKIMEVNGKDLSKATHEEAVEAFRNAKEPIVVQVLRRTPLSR
IL16_1, Q14005, sequence (Q14005 210-306): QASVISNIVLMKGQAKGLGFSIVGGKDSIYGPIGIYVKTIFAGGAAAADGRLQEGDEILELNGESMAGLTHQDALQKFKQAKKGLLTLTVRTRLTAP
SCRIB_2, Q14160, sequence (Q14160 857-960): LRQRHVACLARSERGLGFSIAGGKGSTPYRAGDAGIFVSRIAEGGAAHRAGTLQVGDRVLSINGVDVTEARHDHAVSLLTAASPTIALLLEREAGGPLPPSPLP
MAGI2_2, Q86UL8, sequence (Q86UL8 410-522): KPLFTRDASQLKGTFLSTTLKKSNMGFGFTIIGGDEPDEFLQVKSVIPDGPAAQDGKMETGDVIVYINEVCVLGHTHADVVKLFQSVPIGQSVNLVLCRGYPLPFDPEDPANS
MAGI3_2, Q5TCQ9, sequence (Q5TCQ9 398-503): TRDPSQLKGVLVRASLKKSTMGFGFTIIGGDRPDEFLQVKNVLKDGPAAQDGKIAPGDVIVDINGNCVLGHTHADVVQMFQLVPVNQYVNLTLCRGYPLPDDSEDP
MAGI1_1, Q96QZ7, sequence (Q96QZ7 1-106): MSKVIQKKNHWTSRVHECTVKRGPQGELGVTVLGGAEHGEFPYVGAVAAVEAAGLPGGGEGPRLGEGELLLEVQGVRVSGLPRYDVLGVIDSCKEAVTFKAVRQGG

## HTHSYIETHV [CNKSR2, Q8WXI2]
DLG4_1, P78352; [1]
  pKd: 4.4
FRMPD3, Q5JV73; [1]
  pKd: below the threshold
GRIP1_3, Q9Y3R0; [1]
  pKd: below the threshold
GRIP2_7, Q9C0E4; [1]
  pKd: below the threshold
HTRA3, P83110; [1]
  pKd: below the threshold
IL16_1, Q14005; [1]
  pKd: 3.9
Inadl_2, Q8NI35; [1]
  pKd: below the threshold
Inadl_8, Q8NI35; [1]
  pKd: below the threshold
LDB3, O75112; [1]
  pKd: below the threshold
LIMK2, P53671; [1]
  pKd: below the threshold
LIN7C, Q9NUP9; [1]
  pKd: 3.67
MAGI1_1, Q96QZ7; [1]
  pKd: below the threshold
MAGI2_2, Q86UL8; [1]
  pKd: 4.37
MAGI2_4, Q86UL8; [1]
  pKd: below the threshold
MAGI2_6, Q86UL8; [1]
  pKd: 4.41
MAGI3_2, Q5TCQ9; [1]
  pKd: 4.69
MPP6, Q9NZW5; [1]
  pKd: below the threshold
MPP7, Q5T2T1; [1]
  pKd: below the threshold
NHERF3_3, Q5T2W1; [1]
  pKd: below the threshold
NHERF4_1, Q86UT5-2; [1]
  pKd: below the threshold
NOS1, P29475; [1]
  pKd: 3.85
PDZD7_3, Q9H5P4; [1]
  pKd: 4.51
PDZRN4_1, Q6ZMN7; [1]
  pKd: below the threshold
RADIL, Q96JH8; [1]
  pKd: 4.22
SCRIB_2, Q14160; [1]
  pKd: 5.31
SNTB1, Q13884; [1]
  pKd: 4.6
SNTG1, Q9NSN8; [1]
  pKd: 4.9

## TLSLTDSSVDGIPPYR [AXIN1_int, O15169]
DLG4_1, P78352; [2]
  pKd: below the threshold
FRMPD3, Q5JV73; [2]
  pKd: below the threshold
GRIP1_3, Q9Y3R0; [2]
  pKd: below the threshold
GRIP2_7, Q9C0E4; [2]
  pKd: below the threshold
HTRA3, P83110; [2]
  pKd: below the threshold
IL16_1, Q14005; [2]
  pKd: 3.48
Inadl_2, Q8NI35; [2]
  pKd: below the threshold
Inadl_8, Q8NI35; [2]
  pKd: below the threshold
LDB3, O75112; [2]
  pKd: below the threshold
LIMK2, P53671; [2]
  pKd: below the threshold
LIN7C, Q9NUP9; [2]
  pKd: 3.97
MAGI1_1, Q96QZ7; [2]
  pKd: below the threshold
MAGI2_2, Q86UL8; [2]
  pKd: below the threshold
MAGI2_4, Q86UL8; [2]
  pKd: below the threshold
MAGI2_6, Q86UL8; [2]
  pKd: below the threshold
MAGI3_2, Q5TCQ9; [2]
  pKd: below the threshold
MPP6, Q9NZW5; [2]
  pKd: 3.93
MPP7, Q5T2T1; [2]
  pKd: below the threshold
NHERF3_3, Q5T2W1; [2]
  pKd: below the threshold
NHERF4_1, Q86UT5-2; [2]
  pKd: below the threshold
NOS1, P29475; [2]
  pKd: below the threshold
PDZD7_3, Q9H5P4; [2]
  pKd: below the threshold
PDZRN4_1, Q6ZMN7; [2]
  pKd: below the threshold
RADIL, Q96JH8; [2]
  pKd: below the threshold
SCRIB_2, Q14160; [2]
  pKd: below the threshold
SNTB1, Q13884; [2]
  pKd: below the threshold
SNTG1, Q9NSN8; [2]
  pKd: below the threshold
